This note sets out measurements from patent publication US20160369010A1 (AstraZeneca / MedImmune, published 2016).

In test [1] the target is T1, Recombinant human Avi_PCSK9_Flag_His (human, UniProt Q8NBP7 31-692, biotinylated in the HTRF and LDL-R competition assays).
T1 construct: In-house protein; also called human PCSK9; huPCSK9
Nature of the test: HTRF epitope competition: unlabelled compound titrated against a DyLight 650-labelled anti-PCSK9 antibody for biotinylated human PCSK9; % specific binding [panel A].
Experimental: (§1) PCSK9 activity of each peptide-antibody fusions was assessed using Homogenous Time Resolved Fluorescence (HTRF) epitope competition assays.
(§2) For the assay all samples and reagents were prepared in assay buffer containing 1X Phosphate Buffered Saline, 0.1% BSA (Sigma A9576) and 0.4M Potassium Fluoride. Test samples of peptide-antibody fusions or control antibodies were prepared in 384 well polypropylene plates by 3-fold serial dilutions. […] Delta F% was then calculated using the following equation.

Test [2] deals with T1, Recombinant human Avi_PCSK9_Flag_His. Nature of the test: binding ELISA: human PCSK9 coated at 10 ug/mL, compound at 100 ug/mL, detection with cryptate-labelled Fc-specific anti-human IgG; fluorescence counts. For orientation: In an ELISA, binding on a coated surface is turned into a signal by an enzyme label.
Experimental: (§3) After plate blocking with 1× Phosphate Buffered Saline, 3% skimmed milk, compounds were added at 100 ug/mL in PBS and incubated for 2 h at room temperature before washing. Bound compounds were detected using cryptate labelled Fc specific anti human IgG (Perkin Elmer) diluted at 100 ng/mL in Delfia Buffer (Perkin Elmer).
Test [3] has the same target. Kind of test: HTRF epitope competition: unlabelled compound titrated against a DyLight 650-labelled anti-PCSK9 antibody for biotinylated human PCSK9; % specific binding [panel E]. (Time-resolved FRET reads energy transfer from a long-lived donor to a nearby acceptor.)
Experimental: as §1, §2
Test [4] shares this target. Kind of test: HTRF epitope competition: unlabelled compound titrated against a DyLight 650-labelled anti-PCSK9 antibody for biotinylated human PCSK9; % specific binding [panel C].
Experimental: as §1, §2
Test [5] has the same target. Kind of test: binding ELISA on coated human PCSK9 (10 ug/mL), compound at 100 ug/mL, detection with cryptate labelled Fc specific anti human IgG.
Experimental: as §3
The target is the same in test [6]. Nature of the test: HTRF epitope competition: unlabelled compound titrated against a DyLight 650-labelled anti-PCSK9 antibody for biotinylated human PCSK9; % specific binding [panel F].
Experimental: as §1, §2
For test [7] the target is unchanged.
Test [8] shares this target. Nature of the test: HTRF epitope competition: unlabelled compound titrated against a DyLight 650-labelled anti-PCSK9 antibody for biotinylated human PCSK9; % specific binding [panel A]. The source holds these as a separate data set.
Experimental: as §1, §2
The target is the same in test [9]. Kind of test: HTRF epitope competition: unlabelled compound titrated against a DyLight 650-labelled anti-PCSK9 antibody for biotinylated human PCSK9; % specific binding [panel E]. This is another data set of the same source.
Experimental: as §1, §2
For test [10] the target is unchanged. Nature of the test: HTRF epitope competition: unlabelled compound titrated against a DyLight 650-labelled anti-PCSK9 antibody for biotinylated human PCSK9; % specific binding [panel F]. The source holds these as a separate data set.
Experimental: as §1, §2
The target in test [11] is recombinant human B7-H1 (in house) (human, UniProt Q9NZQ7 19-238, limits assumed). Kind of test: binding ELISA on coated human B7-H1 (5 ug/mL), compound at 10 ug/mL, detection with cryptate labelled Fc specific anti human IgG.
Sequence of recombinant human B7-H1 (in house) (Q9NZQ7 19-238 limits assumed): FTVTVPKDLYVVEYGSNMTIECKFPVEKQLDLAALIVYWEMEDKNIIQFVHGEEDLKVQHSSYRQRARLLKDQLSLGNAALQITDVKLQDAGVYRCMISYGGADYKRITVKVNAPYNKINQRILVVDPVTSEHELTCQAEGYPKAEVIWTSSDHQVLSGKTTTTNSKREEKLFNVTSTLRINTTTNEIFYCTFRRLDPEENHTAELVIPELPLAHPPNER
Experimental: Binding ELISA was performed by coating human B7-H1 (in house) at 5 ug/mL in 1× Phosphate Buffered Saline. After plate blocking with 1×Phosphate Buffered Saline, 3% skimmed milk, compounds were added at 10 ug/mL in PBS and incubated for 2 h at room temperature before washing.
The target of test [12] is T1, Recombinant human Avi_PCSK9_Flag_His. Nature of the test: HTRF epitope competition: unlabelled compound titrated against a DyLight 650-labelled anti-PCSK9 antibody for biotinylated human PCSK9; % specific binding.
Experimental: as §1, §2

Read-outs that look alike come from different tables or passages of the source.

B1: PC9#1 GLP-1 analogue light chain fusion (antibody, IgG1)
VH: QVQLVQSGAEVKKPGASVKVSCKASGYTFTSYYMHWVRQAPGQGLEWMGEISPFGGRTNYNEKFKSRVTMTRDTSTSTVYMELSSLRSEDTAVYYCARERPLYASDLWGQGTTVTVSS
VL: HGEGTFTSDVSSYLEEQAAKEFIAWLVKGGGGGGGSGGGGSGGGGSADIQMTQSPSSLSASVGDRVTITCRASQGISSALAWYQQKPGKAPKLLIYSASYRYTGVPSRFSGSGSGTDFTFTISSLQPEDIATYYCQQRYSLWRTFGQGTKLEIK
notes: IgG1-TM; peptide-linker at the N-terminus of VL; descriptive name; also called light chain peptide antibody fusion of PC9#1
With B1, the “IC50 (read off the curve)” value in test [1] was about 0.1 nM.

B2: HS9_DSB7_V19A_L0 (antibody, IgG1)
VH: QVQLVQSGAEVKKPGASVKVSCKASGYTFTSYYMHWVRQAPGQGLEWMGEISPSGGSTSYNQKFQGRVTMTRDTSTSTVYMELSSLRSEDTAVYYCARERPLYASDLWGQGTTVTVSS
light: not shown
notes: VH see m27; IgG1-TM
Consider B2, for which, in [2], the binding result was “binds”.

B3: HS9_DSB7_V19A_L1 (antibody, IgG1)
VH: QVQLVQSGAEVKKPGASVKVSCKASGYTFTSYYMHWVRQAPGQGLEWMGEISPSGGSTSYNQKFQGRVTMTRDTSTSTVYMELSSLRSEDTAVYYCARERPLYASDLWGQGTTVTVSS
light: not shown
notes: VH see m27; IgG1-TM
For the molecule B3, the binding result in test [2] is listed as “binds”.

B4: HS9_DSB7_V19A_L2 (antibody, IgG1)
VH: QVQLVQSGAEVKKPGASVKVSCKASGYTFTSYYMHWVRQAPGQGLEWMGEISPSGGSTSYNQKFQGRVTMTRDTSTSTVYMELSSLRSEDTAVYYCARERPLYASDLWGQGTTVTVSS
light: not shown
Consider B4, for which, in test [2], the binding result was “binds”.

B5: PC9#5 GLP-1 analogue heavy chain fusion (antibody, IgG1)
VH: HGEGTFTSDVSSYLEEQAAKEFIAWLVKGGGGGGGSGGGGSGGGGSAEMQLVESGGGLVQPGGSLRLSCAASGFTFSSHWMKWVRQAPGKGLEWVANINQDGSEKYYVDSVKGRFTISRDNAKNSLFLQMNSLRAEDTAVYYCARDIVLMVYDMDYYYYGMDVWGQGTTVTVSS
VL: not shown
notes: IgG1-TM; descriptive name; also called heavy chain peptide antibody fusion of PC9#5
For the molecule B5, the “IC50 (read off the curve)” value in test [3] is about 0.1 nM.

B6: PC9#3 GLP-1 analogue light chain fusion (antibody, IgG1)
VH: EVQLVESGGGLVQPGGSLRLSCAASGFTFNNYAMNWVRQAPGKGLDWVSTISGSGGTTNYADSVKGRFIISRDSSKHTLYLQMNSLRAEDTAVYYCAKDSNWGNFDLWGRGTLVTVSS
VL: HGEGTFTSDVSSYLEEQAAKEFIAWLVKGGGGGGGSGGGGSGGGGSADIVMTQSPDSLAVSLGERATINCKSSQSVLYRSNNRNFLGWYQQKPGQPPNLLIYWASTRESGVPDRFSGSGSGTDFTLTISSLQAEDVAVYYCQQYYTTPYTFGQGTKLEIK
notes: IgG1-TM; descriptive name; also called light chain peptide antibody fusion of PC9#3
Take B6: the “IC50 (read off the curve)” value in [4] is about 0.4 nM.

B7: PC9#3_DSB7_V19A (antibody, IgG1)
VH: EVQLVESGGGLVQPGGSLRLSCAASGFTFNNYAMNWVRQAPGKGLDWVSTISGSGGTTNYADSVKGRFIISRDSSKHTLYLQMNSLRAEDTAVYYCAKDSNWGNFDLWGRGTLVTVSS
VL: HGEGTFTSDLSKQMEEECARLFIEWLKNGGPSSGAPPPGCGGGGGSGGGGSGGGGSADIVMTQSPDSLAVSLGERATINCKSSQSVLYRSNNRNFLGWYQQKPGQPPNLLIYWASTRESGVPDRFSGSGSGTDFTLTISSLQAEDVAVYYCQQYYTTPYTFGQGTKLEIK
notes: IgG1-TM
For B7, the binding result in test [5] is listed as “binds”.

B8: PC9#6 GLP-1 analogue heavy chain fusion (antibody, IgG1)
VH: HGEGTFTSDVSSYLEEQAAKEFIAWLVKGGGGGGGSGGGGSGGGGSAQVQLVQSGAEVKKPGSSVKVSCKASGGTFNSHAISWVRQAPGQGLEWMGGINPILGIANYAQKFQGRVTITADESTSTAYMELSSLRSEDTAVYYCARHYEIQIGRYGMNVYYLMYRFASWGQGTLVTVSS
VL: DIQMTQSPSSLSASVGDRVTITCRASQGIRSALNWYQQKPGKAPKLLIYNGSTLQSGVPSRFSGSGSGTDFTLTISSLQPEDFAVYYCQQFDGDPTFGQGTKVEIK
notes: IgG1-TM; descriptive name; also called heavy chain peptide antibody fusion of PC9#6
In the case of B8, the “IC50 (read off the curve)” value in [6] was about 0.6 nM.

B9: PC9#7 GLP-1 analogue light chain fusion (antibody)
VH: QVQLVQSGAEVKKPGESLKISCKGSGYSFTNYWISWVRQMPGKGLEWMGIIYPGDSYTNYSPSFQGQVTISADKSISTAYLQWSSLKASDTAMYYCARDYWYKPLFDIWGQGTLVTVSS
VL: HGEGTFTSDVSSYLEEQAAKEFIAWLVKGGGGGGGSGGGGSGGGGSADIVMTQSPDSLAVSLGERATINCRSSQSVLYSSNNKNYLAWYQQKPGQPPKLLIYWASTRESGVPDRFSGSGSGTDFTLTISSLQAEDVAVYYCQQYSSFPITFGQGTKVEIK
For the molecule B9, the “IC50 (read off the curve)” value in [7] is about 1 nM.

B10: PC9#1 GLP-1 analogue heavy chain fusion (antibody, IgG1)
VH: HGEGTFTSDVSSYLEEQAAKEFIAWLVKGGGGGGGSGGGGSGGGGSAQVQLVQSGAEVKKPGASVKVSCKASGYTFTSYYMHWVRQAPGQGLEWMGEISPFGGRTNYNEKFKSRVTMTRDTSTSTVYMELSSLRSEDTAVYYCARERPLYASDLWGQGTTVTVSS
VL: DIQMTQSPSSLSASVGDRVTITCRASQGISSALAWYQQKPGKAPKLLIYSASYRYTGVPSRFSGSGSGTDFTFTISSLQPEDIATYYCQQRYSLWRTFGQGTKLEIK
notes: IgG1-TM; peptide-linker at the N-terminus of VH; also called heavy chain peptide antibody fusion of PC9#1
For B10, in test [8], the “IC50 (read off the curve)” value was about 0.06 nM.

B11: PC9#5 GLP-1 analogue light chain fusion (antibody, IgG1, V domains shown)
VH: EMQLVESGGGLVQPGGSLRLSCAASGFTFSSHWMKWVRQAPGKGLEWVANINQDGSEKYYVDSVKGRFTISRDNAKNSLFLQMNSLRAEDTAVYYCARDIVLMVYDMDYYYYGMDVWGQGTTVTVSS
VL: not shown
notes: IgG1-TM; descriptive name; also called light chain peptide antibody fusion of PC9#5
Turning to B11, in test [9], the “IC50 (read off the curve)” value was about 6 nM.

B12: PC9#5_DSB7_V19A (antibody, IgG1, V domains shown)
VH: EMQLVESGGGLVQPGGSLRLSCAASGFTFSSHWMKWVRQAPGKGLEWVANINQDGSEKYYVDSVKGRFTISRDNAKNSLFLQMNSLRAEDTAVYYCARDIVLMVYDMDYYYYGMDVWGQGTTVTVSS
VL: not shown
notes: IgG1-TM
On to B12, for which, in test [5], the binding result was “binds”.

B13: PC9#6 GLP-1 analogue light chain fusion (antibody, IgG1)
VH: QVQLVQSGAEVKKPGSSVKVSCKASGGTFNSHAISWVRQAPGQGLEWMGGINPILGIANYAQKFQGRVTITADESTSTAYMELSSLRSEDTAVYYCARHYEIQIGRYGMNVYYLMYRFASWGQGTLVTVSS
VL: HGEGTFTSDVSSYLEEQAAKEFIAWLVKGGGGGGGSGGGGSGGGGSADIQMTQSPSSLSASVGDRVTITCRASQGIRSALNWYQQKPGKAPKLLIYNGSTLQSGVPSRFSGSGSGTDFTLTISSLQPEDFAVYYCQQFDGDPTFGQGTKVEIK
notes: IgG1-TM; descriptive name; also called light chain peptide antibody fusion of PC9#6
Take B13: the binding result in test [10] is recorded as “binds”.

B14: Fusion 2.7A4 DSB7 V19A (antibody)
VH: EVQLVESGGGLVKPGGSLRLSCAASGFTFSTYSMNWVRQAPGKGLEWVSSISSSGDYIYYADSVKGRFTISRDNAKNSLYLQMNSLRAEDTAVYYCARDLVTSMVAFDYWGQGTLVTVSS
VL: HGEGTFTSDLSKQMEEECARLFIEWLKNGGPSSGAPPPGCGGGGGSGGGGSGGGGSASYELTQPPSVSVSPGQTARITCSGDALPQKYVFWYQQKSGQAPVLVIYEDSKRPSGIPERFSGSSSGTMATLTISGAQVEDEADYYCYSTDRSGNHRVFGGGTKLTVL
notes: Peptide-linker on the light chain of the anti-B7-H1 antibody
Turning to B14, in test [11], the binding result is given as “binds”.

B15: PC9#7 GLP-1 analogue heavy chain fusion (antibody, IgG1)
VH: HGEGTFTSDVSSYLEEQAAKEFIAWLVKGGGGGGGSGGGGSGGGGSAQVQLVQSGAEVKKPGESLKISCKGSGYSFTNYWISWVRQMPGKGLEWMGIIYPGDSYTNYSPSFQGQVTISADKSISTAYLQWSSLKASDTAMYYCARDYWYKPLFDIWGQGTLVTVSS
VL: not shown
notes: IgG1-TM; descriptive name; also called heavy chain peptide antibody fusion of PC9#7
With B15, the “IC50 (read off the curve)” value in test [12] was about 0.1 nM.
